Data set [1] deals with the molecule itself. Kind of data set: native gel or EMSA; native PAGE of THP-1 cell lysates, cells infected with HSV-1 (MOI = 1) for the indicated times. (A gel shift assay detects complexes by their altered migration in electrophoresis.)
The target in data set [2] is T1, endogenous IRF3 in THP-1 cells (human (endogenous in THP-1)), Q14653.
T1 chain: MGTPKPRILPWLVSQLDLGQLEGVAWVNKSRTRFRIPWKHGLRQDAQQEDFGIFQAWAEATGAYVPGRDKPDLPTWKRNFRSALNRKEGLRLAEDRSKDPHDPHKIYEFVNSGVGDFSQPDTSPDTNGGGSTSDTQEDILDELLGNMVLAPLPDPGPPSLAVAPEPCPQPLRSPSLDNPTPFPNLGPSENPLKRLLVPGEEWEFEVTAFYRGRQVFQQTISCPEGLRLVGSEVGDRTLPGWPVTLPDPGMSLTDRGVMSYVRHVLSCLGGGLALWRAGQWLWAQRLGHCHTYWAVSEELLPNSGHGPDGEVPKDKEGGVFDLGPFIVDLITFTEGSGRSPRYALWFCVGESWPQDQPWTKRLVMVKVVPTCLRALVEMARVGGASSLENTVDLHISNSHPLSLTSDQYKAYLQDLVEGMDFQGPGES
Described as above. Particulars: remark: other sources report otherwise.

B1: endogenous gigaxonin in THP-1 cells (natural protein, human (endogenous in THP-1), UniProt Q9H2C0 1-597, looked up)
chain: MAEGSAVSDPQHAARLLRALSSFREESRFCDAHLVLDGEEIPVQKNILAAASPYIRTKLNYNPPKDDGSTYKIELEGISVMVMREILDYIFSGQIRLNEDTIQDVVQAADLLLLTDLKTLCCEFLEGCIAAENCIGIRDFALHYCLHHVHYLATEYLETHFRDVSSTEEFLELSPQKLKEVISLEKLNVGNERYVFEAVIRWIAHDTEIRKVHMKDVMSALWVSGLDSSYLREQMLNEPLVREIVKECSNIPLSQPQQGEAMLANFKPRGYSECIVTVGGEERVSRKPTAAMRCMCPLYDPNRQLWIELAPLSMPRINHGVLSAEGFLFVFGGQDENKQTLSSGEKYDPDANTWTALPPMNEARHNFGIVEIDGMLYILGGEDGEKELISMECYDIYSKTWTKQPDLTMVRKIGCYAAMKKKIYAMGGGSYGKLFESVECYDPRTQQWTAICPLKERRFGAVACGVAMELYVFGGVRSREDAQGSEMVTCKSEFYHDEFKRWIYLNDQNLCIPASSSFVYGAVPIGASIYVIGDLDTGTNYDYVREFKRSTGTWHHTKPLLPSDLRRTGCAALRIANCKLFRLQLQQGLFRIRVHSP
notes: By native PAGE both dimer and monomer in the steady state; source: endogenous, THP-1 lysate
What is called stoichiometry N is a count of units in the complex or per binding partner. Take B1: the “stoichiometry N” value in data set [1] was 2.

B2: endogenous IRF3 in THP-1 cells, Q14653 1-427 (natural protein)
chain: T1 chain
Regarding B2, the stoichiometry N in data set [2] worked out at 2.

These data come from publication PMC12667517, “Gigaxonin Potentiates Antiviral Innate Immune Responses by Targeting cGAS and TREX1” (Advanced Science, 2025).
